Results published in PMC5404189.

Biological target: extracellular fibrinogen binding protein (Staphylococcus aureus) (UniProt A6QG59)
Assay: ELISA

Chain of UniProt A6QG59 (A6QG59 30-165): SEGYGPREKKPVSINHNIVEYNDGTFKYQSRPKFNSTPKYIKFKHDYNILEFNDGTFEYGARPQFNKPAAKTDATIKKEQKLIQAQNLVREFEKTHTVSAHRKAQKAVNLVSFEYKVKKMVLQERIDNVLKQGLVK

## human complement C3 (natural protein)
  reBC at 10% plasma: > 80%
